We go through eight molecules from patent US20170342144A1 (Sanofi, published 2017).

Experiment [1] deals with T1, human TGFβ1 (human, UniProt P01137 279-390).
T1 construct: also called TGFβ1 homodimer
Kind of experiment: Biacore, immobilised TGFβ. In general terms: In SPR one partner is held on a chip, and binding of the other changes the refractive index at the surface.

Experiment [2] has as its target T2, human TGFβ2 (human, UniProt P61812 303-414).
T2 construct: also called TGFβ2 homodimer
T2 sequence: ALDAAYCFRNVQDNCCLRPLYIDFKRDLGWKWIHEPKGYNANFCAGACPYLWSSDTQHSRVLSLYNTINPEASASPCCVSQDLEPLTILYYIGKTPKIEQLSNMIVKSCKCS
The experiment is described as follows: Biacore, immobilised TGFβ.

Experiment [3] has as its target T3, human TGFβ3 (human, UniProt P10600 301-412).
T3 sequence: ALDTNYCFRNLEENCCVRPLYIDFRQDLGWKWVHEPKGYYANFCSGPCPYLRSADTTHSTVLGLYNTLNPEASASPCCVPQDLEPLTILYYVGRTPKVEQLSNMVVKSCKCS
Kind of experiment: Biacore, immobilised TGFβ.

The target of experiment [4] is T1, human TGFβ1. Kind of experiment: Biacore off-rate vs wt GC1008. From the text:
(§1) Plasmids encoding either the GC1008 heavy chain or light chain were used as a template in PCR-based mutagenesis reactions. Mutations to the encoding DNA were made to create 155 single amino acid substitutions of the encoded heavy chain amino acid sequence and one single amino acid substitution of the encoded light chain amino acid sequence. A QuikChange® Lightning Site-Directed Mutagenesis kit (Agilent Technologies, Santa Clara Calif.) was used according to the manufacturer's instructions to create DNA mutations using a set of forward and reverse primers, either designed for a specific amino acid or for all 20 amino acids with a degenerate codon (NNK). After sequencing confirmation, identified mutant DNA was paired with a wild-type light or heavy chain DNA for transfection into an Expi293F™ host cell suspension (Life Techonologies Corp., Grand Island, N.Y.). At 4 days post-transfection, conditioned media (1 mL) was harvested and purified using a 1 mL Protein A PhyTip® column (PhyNexus, Inc., San Jose, Calif.) and a PureSpeed™ 12-channel pipette (Rainin Instrument LLC, Oakland, Calif.). Purified variant antibody samples were analyzed in duplicate on a Biacore® 3000 (GE Healthcare) at 50 nM concentrations, using the 100 RU level TGFβ1, 2, and 3 immobilized surfaces. The off-rate (kd) of the variants was divided by the kd of the wild-type control to obtain the fold change in the kd. […] A heat map was generated to visualize the results. Variants that completely lost affinity for TGFβ were shown in red without numbers.

The target in experiment [5] is T2, human TGFβ2. Kind of experiment: Biacore off-rate vs wt GC1008.
From the text: as §1

The target in experiment [6] is T3, human TGFβ3. Kind of experiment: Biacore off-rate vs wt GC1008.
From the text: as §1

Experiment [7] has as its target T1, human TGFβ1. Kind of experiment: Biacore off-rate vs wt GC1008, 50 nM. Summed up: (§2)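 Surface plasmon resonance on a Biacore 3000 measured how fast purified antibody variants dissociated from TGFβ isoforms immobilized at about 100 RU. Variants carried single heavy- or light-chain substitutions and were produced by transient Expi293F transfection with Protein A cleanup. Samples at 50 nM were tested in duplicate, and each variant kd was divided by the wild-type control kd to give fold change.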

Experiment [8] concerns the target T2, human TGFβ2. The experiment is described as follows: Biacore off-rate vs wt GC1008, 50 nM. Summed up: as §2
The target of experiment [9] is T3, human TGFβ3. Kind of experiment: Biacore off-rate vs wt GC1008, 50 nM. The method, boiled down:
as §2

Experiment [10] deals with T1, human TGFβ1. Kind of experiment: Biacore, 3.33-90 nM, 1:1 global fit, vs wt GC1008. The protocol: (§3) In FIG. 6C, seventeen mutants were selected and scaled up to produce sufficient amount of purified protein for KD (equilibrium constant=kd/ka) analysis by Biacore. Multiple concentrations (90, 30, 10 and 3.33 nM) were used in duplicate on the 150 RU level TGFβ1, 2, and 3 immobilized surfaces. KD was calculated using global curve fitting analysis for a 1-to-1 Langmuir binding model. The experimental data from all four concentrations were used for calculation except for I54N and I54R mutants, where only the top 2 concentrations were used. The fold changes in KD were compared to the fold changes in kd (off rate) presented in FIG. 6B, and a heat map was generated for visualization. Similar fold changes were observed from the two data sets, confirming the validity of using kd as a parameter for screening of 155 single mutants as shown in FIG. 6B.

Experiment [11] addresses T2, human TGFβ2. Kind of experiment: Biacore, 3.33-90 nM, 1:1 global fit, vs wt GC1008. The protocol:
as §3

For experiment [12], the target named is T3, human TGFβ3. Kind of experiment: Biacore, 3.33-90 nM, 1:1 global fit, vs wt GC1008. As for the experimental part: as §3

T1 sequence (P01137 279-390 limits assumed): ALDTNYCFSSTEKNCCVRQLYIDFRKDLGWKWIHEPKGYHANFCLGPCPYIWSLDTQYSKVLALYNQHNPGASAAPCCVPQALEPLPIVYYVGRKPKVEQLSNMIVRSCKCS

B1: I52A (antibody, V domains shown)
VH: QVQLVQSGAEVKKPGSSVKVSCKASGYTFSSNVISWVRQAPGQGLEWMGGVAPIVDIANYAQRFKGRVTITADESTSTTYMELSSLRSEDTAVYYCASTLGLVLDAMDYWGQGTLVTVSS
VL: ETVLTQSPGTLSLSPGERATLSCRASQSLGSSYLAWYQQKPGQAPRLLIYGASSRAPGIPDRFSGSGSGTDFTLTISRLEPEDFAVYYCQQYADSPITFGQGTRLEIK
notes: GC1008 IgG4 variant
Take B1: the binding result with human TGFβ1 [1], with human TGFβ2 [2] and in the experiment with human TGFβ3 [3] was “no binding (tested: 50 nM)” each time.

B2: S31W (antibody, V domains shown)
VH: QVQLVQSGAEVKKPGSSVKVSCKASGYTFSWNVISWVRQAPGQGLEWMGGVIPIVDIANYAQRFKGRVTITADESTSTTYMELSSLRSEDTAVYYCASTLGLVLDAMDYWGQGTLVTVSS
VL: ETVLTQSPGTLSLSPGERATLSCRASQSLGSSYLAWYQQKPGQAPRLLIYGASSRAPGIPDRFSGSGSGTDFTLTISRLEPEDFAVYYCQQYADSPITFGQGTRLEIK
notes: GC1008 IgG4 variant
As to B2, the values for the kd mutant/kd wt with human TGFβ1 [4], with human TGFβ2 [5] and with human TGFβ3 [6] were 1.7, 1.4 and 1.6, respectively. Besides, the kd var/kd wt with human TGFβ1 [7] is 1.7; with human TGFβ2 [8], 1.4; with human TGFβ3 [9], 1.6. For the same molecule, the “KD mutant/KD wt” value with human TGFβ1 [10], with human TGFβ2 [11] and in the experiment with human TGFβ3 [12] was 1.3 throughout.

B3: Y27H (antibody, V domains shown)
VH: QVQLVQSGAEVKKPGSSVKVSCKASGHTFSSNVISWVRQAPGQGLEWMGGVIPIVDIANYAQRFKGRVTITADESTSTTYMELSSLRSEDTAVYYCASTLGLVLDAMDYWGQGTLVTVSS
VL: ETVLTQSPGTLSLSPGERATLSCRASQSLGSSYLAWYQQKPGQAPRLLIYGASSRAPGIPDRFSGSGSGTDFTLTISRLEPEDFAVYYCQQYADSPITFGQGTRLEIK
notes: GC1008 IgG4 variant
For the molecule B3, the figures for the kd mutant/kd wt with human TGFβ1 [4], with human TGFβ2 [5] and with human TGFβ3 [6] were 1.5, 1.4 and 1.4, respectively. In addition, the kd var/kd wt with human TGFβ1 [7] amounted to 1.5; with human TGFβ2 [8], 1.4; with human TGFβ3 [9], 1.4. Besides, the “KD mutant/KD wt” value in the experiment with human TGFβ1 [10] came out at 1.2; with human TGFβ2 [11] it was 1.3; with human TGFβ3 [12] it was 1.1.

B4: V55F (antibody, V domains shown)
VH: QVQLVQSGAEVKKPGSSVKVSCKASGYTFSSNVISWVRQAPGQGLEWMGGVIPIFDIANYAQRFKGRVTITADESTSTTYMELSSLRSEDTAVYYCASTLGLVLDAMDYWGQGTLVTVSS
VL: ETVLTQSPGTLSLSPGERATLSCRASQSLGSSYLAWYQQKPGQAPRLLIYGASSRAPGIPDRFSGSGSGTDFTLTISRLEPEDFAVYYCQQYADSPITFGQGTRLEIK
notes: GC1008 IgG4 variant
Take B4: the kd mutant/kd wt was found to be 1.2 with human TGFβ1 [4], 0.9 with human TGFβ2 [5] and 1.2 with human TGFβ3 [6]. The kd var/kd wt was 1.2 in the experiment with human TGFβ1 [7], 0.9 with human TGFβ2 [8] and 1.2 with human TGFβ3 [9]. Besides, the “KD mutant/KD wt” value with human TGFβ1 [10] amounted to 1; with human TGFβ2 [11], 0.6; in the experiment with human TGFβ3 [12], 0.8.

B5: S30W (antibody, V domains shown)
VH: QVQLVQSGAEVKKPGSSVKVSCKASGYTFWSNVISWVRQAPGQGLEWMGGVIPIVDIANYAQRFKGRVTITADESTSTTYMELSSLRSEDTAVYYCASTLGLVLDAMDYWGQGTLVTVSS
VL: ETVLTQSPGTLSLSPGERATLSCRASQSLGSSYLAWYQQKPGQAPRLLIYGASSRAPGIPDRFSGSGSGTDFTLTISRLEPEDFAVYYCQQYADSPITFGQGTRLEIK
notes: GC1008 IgG4 variant
As to B5, the figures for the kd mutant/kd wt with human TGFβ1 [4], in the experiment with human TGFβ2 [5] and in the experiment with human TGFβ3 [6] were 0.7, 0.4 and 0.3, respectively. For the same molecule, the kd var/kd wt with human TGFβ1 [7] came out at 0.7; with human TGFβ2 [8] it was 0.4; in the experiment with human TGFβ3 [9] it was 0.3. Also, the “KD mutant/KD wt” value with human TGFβ1 [10] stood at 0.7; with human TGFβ2 [11], 0.4; in the experiment with human TGFβ3 [12], 0.3.

B6: S30E (antibody, V domains shown)
VH: QVQLVQSGAEVKKPGSSVKVSCKASGYTFESNVISWVRQAPGQGLEWMGGVIPIVDIANYAQRFKGRVTITADESTSTTYMELSSLRSEDTAVYYCASTLGLVLDAMDYWGQGTLVTVSS
VL: ETVLTQSPGTLSLSPGERATLSCRASQSLGSSYLAWYQQKPGQAPRLLIYGASSRAPGIPDRFSGSGSGTDFTLTISRLEPEDFAVYYCQQYADSPITFGQGTRLEIK
notes: GC1008 IgG4 variant
Turning to B6, the kd mutant/kd wt was 1.2 with human TGFβ1 [4], 1.4 with human TGFβ2 [5] and 1.1 with human TGFβ3 [6]. Besides, the figures for the kd var/kd wt with human TGFβ1 [7], in the experiment with human TGFβ2 [8] and with human TGFβ3 [9] were 1.2, 1.4 and 1.1, respectively. Further, the “KD mutant/KD wt” value with human TGFβ1 [10] came out at 1.5; with human TGFβ2 [11], 1.6; in the experiment with human TGFβ3 [12], 0.8.

B7: N32K (antibody, V domains shown)
VH: QVQLVQSGAEVKKPGSSVKVSCKASGYTFSSKVISWVRQAPGQGLEWMGGVIPIVDIANYAQRFKGRVTITADESTSTTYMELSSLRSEDTAVYYCASTLGLVLDAMDYWGQGTLVTVSS
VL: ETVLTQSPGTLSLSPGERATLSCRASQSLGSSYLAWYQQKPGQAPRLLIYGASSRAPGIPDRFSGSGSGTDFTLTISRLEPEDFAVYYCQQYADSPITFGQGTRLEIK
notes: GC1008 IgG4 variant
B7: the results for the kd mutant/kd wt in the experiment with human TGFβ1 [4], with human TGFβ2 [5] and with human TGFβ3 [6] were 2.7, 1.4 and 1.8, respectively. The figures for the kd var/kd wt with human TGFβ1 [7], with human TGFβ2 [8] and with human TGFβ3 [9] were 2.7, 1.4 and 1.8, respectively. Besides, the “KD mutant/KD wt” value amounted to 4 with human TGFβ1 [10], 2.6 with human TGFβ2 [11] and 3.7 with human TGFβ3 [12].

B8: N32E (antibody, V domains shown)
VH: QVQLVQSGAEVKKPGSSVKVSCKASGYTFSSEVISWVRQAPGQGLEWMGGVIPIVDIANYAQRFKGRVTITADESTSTTYMELSSLRSEDTAVYYCASTLGLVLDAMDYWGQGTLVTVSS
VL: ETVLTQSPGTLSLSPGERATLSCRASQSLGSSYLAWYQQKPGQAPRLLIYGASSRAPGIPDRFSGSGSGTDFTLTISRLEPEDFAVYYCQQYADSPITFGQGTRLEIK
notes: GC1008 IgG4 variant
For the molecule B8, the kd mutant/kd wt with human TGFβ1 [4] turned out to be 0.6; with human TGFβ2 [5], 0.8; with human TGFβ3 [6], 0.7. Further, the kd var/kd wt with human TGFβ1 [7] stood at 0.6; in the experiment with human TGFβ2 [8], 0.8; with human TGFβ3 [9] it was 0.7. Besides, the “KD mutant/KD wt” value with human TGFβ1 [10] was 1; with human TGFβ2 [11], 0.8; with human TGFβ3 [12], 1.
